Molecular target: MBP + FGFR2 31-406 (ECD + TM) (human) (UniProt P21802)
Test: SEC; main elution fraction (1.5 M NaCl, 0.1% DDM) of a heparin affinity column loaded first with FGF1 and then with refolded MBP-FGFR2 ECD + TM, run on size exclusion chromatography; peaks analysed by SDS-PAGE and western blot (anti-MBP, anti-His-tag)

A stoichiometry N of 2 was found for “MBP + FGFR2 31-406 (ECD + TM) (from UniProt P21802 31-406) (domain or fragment)” in this work.
